# Experimental data as given in US20230062122A1 (VALO THERAPEUTICS, published 2023).
# T1: MHC-I molecule (H-2K^b) on C57BL/6 splenocytes (mouse, UniProt P01887 21-119; P01901 22-369)
# T1 sequence (MHC heavy): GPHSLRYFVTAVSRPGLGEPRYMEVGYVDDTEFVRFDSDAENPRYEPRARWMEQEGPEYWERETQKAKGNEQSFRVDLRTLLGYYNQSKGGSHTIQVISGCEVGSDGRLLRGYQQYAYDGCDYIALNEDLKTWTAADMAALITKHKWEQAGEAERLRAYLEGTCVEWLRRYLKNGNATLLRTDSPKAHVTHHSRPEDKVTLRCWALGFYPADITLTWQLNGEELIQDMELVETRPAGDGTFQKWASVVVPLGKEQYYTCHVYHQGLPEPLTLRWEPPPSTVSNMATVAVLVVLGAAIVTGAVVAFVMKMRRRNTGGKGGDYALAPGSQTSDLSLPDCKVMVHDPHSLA
# T1 sequence (b2m): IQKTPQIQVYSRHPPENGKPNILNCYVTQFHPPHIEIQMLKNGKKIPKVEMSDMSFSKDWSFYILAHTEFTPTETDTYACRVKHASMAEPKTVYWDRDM
# Experiments:
# [1] = target: SIINFEKL on MHC-I (H-2K^b) on C57BL/6 splenocytes (mouse; chicken); test: flow cytometry, C57BL/6 splenocytes pulsed 2 h with SIINFEKL and stained with the APC antibody
# [2] = target: T1, MHC-I molecule (H-2K^b) on C57BL/6 …; test: cell-based or functional assay
Molecule,% of splenocytes positive [1],proportion of splenocytes cross-presenting SIINFEKL on MHC-I (flow cytometry with anti-H-2K^b bound to SIINFEKL) [2]
APC anti-mouse H-2K^b bound to SIINFEKL (BioLegend) (antibody),98.5%,
KKKKKKSIINFEKL [polyK-SIINFEKL],,94.5%
SIINFEKLKKKKKK [SIINFEKL-polyK],,27.1%
SIINFEKLKKKKKK (amino caproic acid (AHX) residue between SIINFEKL and polyK) [SIINFEKL-AHX-polyK],,1.36%
